Measurements as given in patent US20220227882A1 (TRUSTEES OF TUFTS COLLEGE, published 2022).
Positions count from the first letter of the chain named.

Key:
G445A = molecular target: T1, G445A (Homo sapiens, UniProt P78325); assay: high-throughput flow cytometry, HEK293 cells with mutant ADAM8, high stringency; range in parentheses; closed box
T1 construct: expressed on HEK293 cells; also called human ADAM8 point mutant G445A
T1 sequence (ADAM8, looked up): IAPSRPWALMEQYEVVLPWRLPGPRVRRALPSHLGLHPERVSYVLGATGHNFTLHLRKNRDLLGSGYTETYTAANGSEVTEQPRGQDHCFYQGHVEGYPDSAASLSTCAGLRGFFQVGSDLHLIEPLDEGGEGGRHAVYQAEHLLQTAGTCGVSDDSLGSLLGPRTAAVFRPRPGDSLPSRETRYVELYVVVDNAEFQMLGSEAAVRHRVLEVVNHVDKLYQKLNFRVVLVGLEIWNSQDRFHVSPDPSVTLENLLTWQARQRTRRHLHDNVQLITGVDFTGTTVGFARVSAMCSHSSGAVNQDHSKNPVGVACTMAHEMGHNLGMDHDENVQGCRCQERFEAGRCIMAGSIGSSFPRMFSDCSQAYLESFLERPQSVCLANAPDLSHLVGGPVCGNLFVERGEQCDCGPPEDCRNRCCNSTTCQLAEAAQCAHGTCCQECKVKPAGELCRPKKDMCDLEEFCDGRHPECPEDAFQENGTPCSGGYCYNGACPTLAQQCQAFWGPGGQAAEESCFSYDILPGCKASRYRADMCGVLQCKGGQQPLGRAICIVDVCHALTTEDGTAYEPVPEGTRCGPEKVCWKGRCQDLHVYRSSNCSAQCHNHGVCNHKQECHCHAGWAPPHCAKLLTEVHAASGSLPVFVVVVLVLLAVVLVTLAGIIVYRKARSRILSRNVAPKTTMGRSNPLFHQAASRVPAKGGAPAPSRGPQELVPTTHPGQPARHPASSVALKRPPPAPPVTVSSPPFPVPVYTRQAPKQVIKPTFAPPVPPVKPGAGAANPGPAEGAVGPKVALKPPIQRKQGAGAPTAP
Method: (§1) A variety of experimental parameters were optimized for high-throughput flow cytometry including blocking buffer, and primary and secondary antibody concentrations, to identify the optimal conditions for screening. Through these studies ADP2 and ADP13 were determined to be high affinity binding antibodies.
(§2) Thus, for these studies antigen-binding fragments (Fabs) of ADP2 and ADP13, which bind with lower affinity than the full antibody, were generated. In addition, higher binding stringency conditions were tested, such as increased pH, salinity, and temperature, and/or increased washing, to weaken binding sufficiently to allow identification of critical binding residues in flow cytometry. The final experimental flow cytometry conditions were: primary antibody incubation with ADP2 Fab (0.50 μg/ml), ADP13 Fab (5.00 μg/ml) and Control Ab (0.16 μg/ml) for 60 minutes in flow cytometry buffer containing 10% goat serum in PBS (Ca²⁺ and Mg²⁺ free). […] Samples were washed three times after primary antibody incubation and twice after secondary antibody incubation with PBS (Ca²⁺ and Mg′ free). Next, HEK293 cells expressing WT or mutated ADAM8 proteins or EV DNA were incubated with ADP2 or ADP13 Fabs or Control Ab at their optimal concentrations. Fab binding was detected using Alexa Fluor 488-conjugated secondary antibodies and mean cellular fluorescence determined using the Intellicyt iQue flow cytometry platform. […] This counter-screen strategy facilitates the exclusion of mutants that are locally misfolded or that have an expression defect. Binding of each test Fab to each mutant clone in the alanine scanning library was determined, in duplicate, by high-throughput flow cytometry.

K458A = molecular target: T2, K458A (Homo sapiens, UniProt P78325); assay: as above
T2 construct: expressed on HEK293 cells; also called human ADAM8 point mutant K458A
T2 sequence (ADAM8, looked up): T1 sequence (ADAM8, looked up) with A429G, K442A
Method: as §1, §2

B1: ADP13 Fab (Fab, V domains shown)
VH: EVQLQQSGPEMVKPGTSVKISCKASGYTFTDYYINWVKQSHGKSLEWIGDISPNIGGATYNPKFKGKAILTVDKSARTAYMELRSLTSEDSAVYCCTRGGSSYPYFYAMDYWGQGTSVTVSS
VL: DIVMSQSPSSLAVSVGEKVTMSCKSSQSLLYSSNQKKYLAWYQQKPGQSPKLLIYWASTRESGVPDRFTGSGSGTDFTLTISSVKAEDLAVYYCQQFYSYPYTFGGGTKLEINR
Q: How did the “Binding Reactivity (% WT)” value (G445A) turn out when B1 was run?
A: Its value is 9.7 % WT.

Q: What about the “Binding Reactivity (% WT)” value (K458A) of the same binder?
A: Its value is 13.5 % WT.
